Data reported in US20140086913A1 (Gilead, published 2014).
Blank lines part the entries; values can stand above or below the binder they belong to.

How the values were obtained:
[1] = target: DDR1 with a ProLink Tag (PK) in engineered U20S cells (DiscoveRx) (UniProt Q08345); assay: cell-based or functional assay
[2] = target: DDR1 stably over-expressed in HCT-116 tumor cells (UniProt Q08345); assay: cell-based or functional assay
mouse ECD-DDR1-Fc = target: T1, mouse ECD-DDR1-Fc (mouse; human, UniProt Q03146 22-414); assay: ELISA, coated antigen
T1 construct: also called mouse DDR1-ECD; wild-type mouse DDR1-ECD; not shown: human IgG1 Fc of the vector pFuse-hIgG1-Fc1 (Invivogen)
T1 sequence: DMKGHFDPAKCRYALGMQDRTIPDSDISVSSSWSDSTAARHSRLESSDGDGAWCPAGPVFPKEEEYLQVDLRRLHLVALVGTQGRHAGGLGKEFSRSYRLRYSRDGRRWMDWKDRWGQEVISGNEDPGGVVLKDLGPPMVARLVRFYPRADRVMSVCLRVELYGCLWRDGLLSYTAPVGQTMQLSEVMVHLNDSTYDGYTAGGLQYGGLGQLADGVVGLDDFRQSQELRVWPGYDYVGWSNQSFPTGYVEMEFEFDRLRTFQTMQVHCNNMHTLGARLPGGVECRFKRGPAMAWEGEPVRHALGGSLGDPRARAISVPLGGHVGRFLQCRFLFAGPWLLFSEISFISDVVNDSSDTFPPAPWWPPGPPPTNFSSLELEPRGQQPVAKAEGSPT
In short: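 Plates coated overnight at 4° C with 2 μg/mL purified tagged DDR1 ECD protein, BSA-blocked; serially diluted murine anti-DDR1 mAbs bound 1 hr at room temperature, detected with anti-mouse IgG-HRP and TMB (OD 450). Apparent KD taken as C-parameter of 4-parameter logistic fit of OD versus antibody concentration.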

Sequence of DDR1 stably over-expressed in HCT-116 tumor cells (Q08345 19-913): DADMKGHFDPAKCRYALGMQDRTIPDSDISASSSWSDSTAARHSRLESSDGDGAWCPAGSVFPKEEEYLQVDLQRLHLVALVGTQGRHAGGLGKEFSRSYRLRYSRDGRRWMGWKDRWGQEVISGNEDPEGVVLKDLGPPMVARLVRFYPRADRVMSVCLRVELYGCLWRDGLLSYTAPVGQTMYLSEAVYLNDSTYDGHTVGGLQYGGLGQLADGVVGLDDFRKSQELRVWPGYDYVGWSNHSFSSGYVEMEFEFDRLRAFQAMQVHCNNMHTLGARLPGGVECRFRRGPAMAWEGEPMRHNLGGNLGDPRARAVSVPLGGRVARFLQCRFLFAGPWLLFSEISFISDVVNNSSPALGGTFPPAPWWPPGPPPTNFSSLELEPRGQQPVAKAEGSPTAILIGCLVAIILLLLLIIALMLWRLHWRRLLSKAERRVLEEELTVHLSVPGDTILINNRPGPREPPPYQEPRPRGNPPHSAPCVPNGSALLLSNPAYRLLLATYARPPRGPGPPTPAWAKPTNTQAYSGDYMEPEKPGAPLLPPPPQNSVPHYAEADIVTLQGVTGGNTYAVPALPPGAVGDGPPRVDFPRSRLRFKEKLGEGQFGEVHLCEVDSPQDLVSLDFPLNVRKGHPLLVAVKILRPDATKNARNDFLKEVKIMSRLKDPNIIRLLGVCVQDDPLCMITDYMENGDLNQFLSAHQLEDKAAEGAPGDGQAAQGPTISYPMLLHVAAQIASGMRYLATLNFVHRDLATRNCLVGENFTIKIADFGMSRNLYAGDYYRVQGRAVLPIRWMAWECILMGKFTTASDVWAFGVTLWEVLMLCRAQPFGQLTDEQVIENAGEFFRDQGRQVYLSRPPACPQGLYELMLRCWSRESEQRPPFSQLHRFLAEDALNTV

Mean EC50, DDR1 Tyr513 phosphorylation assay (U20S) [1]: 1.33 nM | EC50, NFkB luciferase reporter (HCT-116, collagen II) [2]: 3.01 nM | EC90, NFkB luciferase reporter (HCT-116, collagen II) [2]: 6.66 nM
B1: AB2078 (antibody, V domains shown)
VH: EIQLQQSGPELVNPGASVKVSCKASGYSFTDYNMYWVKQSHGKSLEWIGYIDPYNGGTSYNQKFKGKATLTVDKSSSTAFMHLNSLTSEDSAVYYCAREYYGSRLWYFDVWGAGTAVTVSS
VL: DIVMTQSPSSLAMSVGQKVTMSCKSSQSLLNRNNQKNYLAWYQQKPGQSPKLLVYFASTRESGVPDRFIGSGSGTDFTLTLSSVRAEDLAENFCQQHYSTPFTFGSGTRLEIKR
notes: mouse hybridoma mAb

binding result (mouse ECD-DDR1-Fc): no binding
B2: AB2041 (antibody, V domains shown)
VH: QVQLHQSGSELAKPGASVKMSCKASGYIFTTYWIHWLKQRPGQGLEWIGFINPDTDYTEYNQKFKDKATLTADKSSNTAYVQLSSLTSEDSAVYYCARGNYGYDGLVYWGLGTLVTVSA
VL: SIVMTQTPKFLLVSAGDRVTITCKASQSVSTDVAWYQQKPGQSPKLLIYYASNRYTGVPDRFTGSGYGTDFTFTISTVQAEDLAVYFCQQDYNSYTFGGGTKLEIKR
notes: mouse hybridoma mAb
